Experimental data as given in US20250034594A1, “RNA-GUIDED GENOME RECOMBINEERING AT KILOBASE SCALE” (THE BOARD OF TRUSTEES OF THE LELAND STANFORD JUNIOR …, priority 2021, published 2025).

Experiments:
Format in all cases: cell-based
gene editing with dCas9 = experiment: Screen of 322 new SSAP proteins, gene editing activity with dCas9 (Table 5); set-up: dCas9 with SSAP activity: scale not given here
Procedure, shortened: (§1)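 Synthetic SSAP candidates, identified computationally, were tested in editing screens using both Cas9 and dCas9.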

gene editing with Cas9 = experiment: Screen of 322 new SSAP proteins, gene editing activity with Cas9 (Table 5); set-up: Cas9 with SSAP activity: scale not given here
Procedure, shortened: as §1

[1] = test system: gene editing with Cas9 and dCas9; experiment: Screen of 322 new SSAP proteins, activity across all experiments (Cas9 and dCas9, Table 5); set-up: scale not given here
Procedure, shortened: as §1

[2] = test system: endogenous genome targets (ACTB, HSP90AA1); experiment: Arrayed SSAP library screening, mKate knock-in assay (editing efficiency); conditions: average of HSP90 and ACTB, 3 days after transfection; for Editing Efficiency (Normalized, Average, two targets): fold over negative control (Flag_HA); for Editing Efficiency (Absolute, Average, two targets): percent of mKate knock-in
Protocol: Arrayed SSAP library screening on endogenous genome targets (ACTB. HSP90AA1) using mKate knock-in assay.
SSAP-encoding plasmids were purified and quantified.
(§2) Each SSAP encoding plasmid was tested in duplicate, including a negative control (same plasmid encoding Flag_HA which is not expected to promote gene editing). Transfections were in 96-well plates and transfection efficiency was estimated to be 50%.
(§3) Three days after transfection, mKate positive cells and cell viability were quantified across all replicates, along with positive (original RecT SSAP) and negative (Flag-HA control protein) controls. […] At the same time, the cell viability was measured by live cell counts via flow cytometry, to help quantify the fitness effect of SSAP on mammalian cells.
(§4) SSAP proteins are identified by Uniparc deposit number and SEQ ID NO. Alignment numbers correspond to SSAPs in FIGS. 58, 59, and 60.

mammalian cells = experiment: Arrayed SSAP library screening, cell viability by live cell counts via flow cytometry
Protocol: as §2, §3, §4

| Molecule | dCas9 with SSAP activity (gene editing with dCas9) | dCas9 with SSAP activity (normalized) (gene editing with dCas9) | Cas9 with SSAP activity (gene editing with Cas9) | Cas9 with SSAP activity (normalized) (gene editing with Cas9) | Activity across all experiments [1] | Editing Efficiency (Normalized, Average, two targets) [2] | Editing Efficiency (Absolute, Average, two targets) [2] | Cell Viability (Average, two targets) (mammalian cells) |
| --- | --- | --- | --- | --- | --- | --- | --- | --- |
| SSAP_16: SEQ ID NO: 185 (protein) MAKENYSDPNGKLLNSITTFEVNGEEVKLSGNIIRDYLVSGNAEVTDQEIIMFLQLCKYQKLNPFLNEAYLVKFKNTKGPDKPAQIIVSKEAFMKRAETHEQYDGFEAGVIVERGGEIIELEGAVSLASDKLLGGWAKVFRKDRNRPVSVRISEKEFNKRQSTWNTMPLTMMRKTAVVNAMREAFPDNLGAMYTEEEQGSLQNTETSVQQEIKQNANAEVLDIPSQQNEVPDFKEVREPEHVEMPPIYGEQQSTPPARPY | −5.666 | −1.047 | −0.858 | −0.452 | −3.262 | 8.461 | 20.95 | 1.146 |
| SSAP_193: SEQ ID NO: 362; Mesotoga sp. TolDC (protein, listed as Mesotoga sp.) KASEIASMVKKEDERRNHKPDPLAGIVKNLTSIKGEIANALPDAGITPERMIRIVVTLLRQNKSLAEAAMQNPASLLGAVMMAAQLGLDPTNGLDQCALVPRKGKVCFDIMYEGLVELGYRSDRMESIVARTVYEKDTFSLKYGLNEELVHIPYLDGDPGESKGYYMVGKLKGGGNIIVYMTKEQVHKIRDRYSVAYKAGLSGSRKDSPWFTSEDRMGEKTVVKAGFRWIPKSPIIRTALALDETAREASRLPMRN | −5.951 | −1.083 | −0.442 | −0.140 | −3.196 | 5.034 | 12.465 | 1.147 |
| SSAP_197: SEQ ID NO: 366; Arsenophonus sp. ENCA (protein, listed as Arsenophonus sp.) NTELETMNNVYDNLQSVIMQQGIAALLPAQVTPEQFTRTAATALIENVDLQNADKQSLVLALTRCAKDGLMPDGREAALVVRSTKVNKQFVKKAVYMPMVDGVIKRARQSGQVANIIAKVVYSQDEFEYVIDENGEHLTHRPAFVDGDDIVKVYAFAKLNSGELVVEVMSRAGVEKIRDTVQSAKYDSSPWVKWFDRMALKTVIHRLARRLPCASELFSLFEVYEDANSTEKTLRMAPASFKRLSIN | −6.622 | −1.370 | −2.785 | −1.134 | −4.703 | 5.661 | 14.025 | 1.021 |
| SSAP_158: SEQ ID NO: 327; Nakamurella lactea (protein, Nakamurella lacteal, Nakamurella lactea) ASNLAARAAEQVEQQTAPNRPPTIKEQIGRMESQFALAMPRGSEAAQLVRDAITAINTNPQLAECTPASVLGALMTCAQLGLRPGVLGHAWVLPFRSKGVMQAQLVIGYQGLVELAHRTGQVASLIAREVHERDHFDVDYGLADSLIHKPLLNGDRGPVTGYYAIVKFKGGGHSFIYASKADVEAHRDKFSKMKSFGPWVDNFDSMALKTVVRMLAKWMPKSTEFANAISADEGVRVDYSPTADVAQATEYVQPQLEEAPVEGVVVSEGGES | −6.910 | −1.386 | −1.229 | −0.520 | −4.070 | 5.44 | 13.45 | 0.9945 |
| SSAP_305: SEQ ID NO: 474 in b312 (Table 9 prints 424); Clostridium akagii (protein, listed as Clostridium akagii) ATSESLKNQLVNKETRPPKDPFKALVYSAGIKKRFEDMLDKQANGFITSLLNLKQDKLKSCDDFTVLGSALKAAALKLPIDPNLGFAWIIPFKNHGKLEAQFQIGYKGFIQMAQRSGQYKKLNVTEIYEGQLKSFNPLTEEIVLDLDNIKSDLRKINKRYLIVMRMNLLALHLRKISKG | −6.032 | −1.721 | 0.745 | 0.408 | −2.644 | 4.612 | 11.425 | 0.5578 |
| SSAP_4: SEQ ID NO: 166 (protein, Lambda) MSTALATLAGKLAERVGMDSVDPQELITTLRQTAFKGDASDAQFIALLIVANQYGLNPWTKEIYAFPDKQNGIVPVVGVDGWSRIINENQQFDGMDFEQDNESCTCRIYRKDRNHPICVTEWMDECRREPFKTREGREITGPWQSHPKRMLRHKAMIQCARLAFGFAGIYDKDEAERIVENTAYTAERQPERDITPVNDETMQEINTLLIALDKTWDDDLLPLCSQIFRRDIRASSELTQAEAVKALGFLKQKAAEQKVAA | −6.997 | −1.447 | −2.882 | −0.474 | −4.940 | 5.57 | 13.8 | 1.192 |
| SSAP_6: SEQ ID NO: 175 (protein) STALATLAGKLAERVGMDSVDPQELITTLRQTAFKGDASDAQFIALLIVANQYGLNPWTKEIYAFPDKQNGIVPVVGVDGWSRIINENQQFDGMDFEQDNESCTCRIYRKDRNHPICVTEWMDECRREPFKTREGREITGPWQSHPKRMLRHKAMIQCARLAFGFAGIYDKDEAERIVENTAYTAERQPERDITPVNDETMQEINTLLIALDKTWDDDLLPLCSQIFRRDIRASSELTQAEAVKALGFLKQKATEQKVAA | −5.703 | −1.399 | −8.056 |  | −6.879 | 4.879 | 12.075 | 1.282 |
| SSAP_262: SEQ ID NO: 431; YqaK Schleiferilactobacillus shenzhenensis LY-73 (protein, listed as Schleiferilactobacillus shenzhenensis) SAVSESKDLQHVDQLSVLNSAMTAASLNLPINQNLGFFYLVPYKGIAQAQMGYKGYIQLAQRSGQYQRLNAIPVYADEFGSWNPLTEELDYTPHFEDRKASDKPVGYVGFFKLANGFEKTVYWSRKQIEAHRDRFSKSSKSSASPWNTDFDAMALKTVLRNLITKWGPMTTDIQRANDADEGDYKNDLSTDTSEPKDVTPGASLEQFLGETDQQQKPATKPAPKKKAEEAKPNDLKPDVTHDPNEHTEQTSLSDDDLPFD | −6.590 | −1.417 | −2.947 | −0.511 | −4.769 | 3.676 | 9.1025 | 1.122 |
